± gives the standard deviation of the averaged measurements.
These sequences were tested on ATP (assay: switch fluorescence ratio, 500 uM ATP over buffer (Cy3 cluster intensity, sum of 5 cycles each) (fold (ratio)); higher = stronger signal-on switching upon ATP binding; sequences stand for … in TCGTCGGCAGCGTCAGATGTGTATAAGAGACAGTTTTTTTTTTTTTTTTTTTTTTTTT…TC). Settings: aptamer strand: ATP DNA aptamer (quencher-CACCTGGGGGAGTATTGCGGAGGAAGG + anchor), 100 nM annealed; ATP concentration: 500 uM.
Procedure, shortened: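 For every switch-domain sequence, the fluorescence ratio is the mean of per-cluster values, each being summed target-cycle Cy3 intensity over summed buffer-cycle Cy3 intensity. Clusters outside 100-1000 RFU were excluded. On a modified Illumina MiSeq flow-cell, the Cy3-labelled switching-strand clusters were annealed to 100 nM quencher-labelled ATP aptamer, imaged in selection buffer and then after 15 min with 500 uM ATP at 22 °C. Five such cycles were run, with NaOH stripping and re-annealing between them.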
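Also: ATP exposure 15 min at 22 °C before imaging.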

| Sequence | switch fluorescence ratio |
| --- | --- |
| CATACATACG | 1.42 ± 0.056 |
| TAACTCTGAG | 0.979 ± 0.015 |
| CGGGGGACTA | 0.985 ± 0.015 |
| GGTGAAAGCC | 0.98 ± 0.049 |
| TTCGGGAAAA | 0.982 ± 0.016 |
| TCTAAGCCAT | 1.05 ± 0.017 |
| GGAGTAAGAT | 1.3 ± 0.018 |
| ATTTGAGGAT | 0.972 ± 0.027 |
| GTGTACGGGT | 0.991 ± 0.012 |
| GAGGTTGGGA | 1.01 ± 0.012 |
| ATTTTTCGTT | 1 ± 0.03 |
| GTGGGGTAAG | 0.987 ± 0.014 |
| CGGATCGACA | 0.976 ± 0.025 |
| TGAAAATCTT | 1.18 ± 0.25 |
| CATTTCAGTG | 0.988 ± 0.025 |
| ATGTAAACGC | 1.03 ± 0.038 |
| ACCGTCATTT | 1.05 ± 0.046 |
| TTGGCGGGGC | 1.02 ± 0.012 |
| AATAATTCTG | 0.984 ± 0.053 |
| AATTATTGCA | 0.997 ± 0.043 |
| CTATAGGTAA | 0.996 ± 0.019 |
| CCGAGGGTTA | 1.34 ± 0.12 |
| TTGTAGGGGT | 1.02 ± 0.052 |

| Sequence | switch fluorescence ratio |
| --- | --- |
| TTTGTTGTTA | 0.994 ± 0.031 |
| AGGGGGCCCG | 1.009 ± 0.005 |
| GTTATTACGA | 1.005 ± 0.0041 |
| AAGAAGGAGG | 1.01 ± 0.029 |
| ATTGATTGAC | 1.05 ± 0.043 |
| TGTGGGGCTG | 1.02 ± 0.08 |
| TTACTTTGGG | 0.9892 ± 0.0065 |
| CATGGGCAG | 0.992 ± 0.034 |
| TTCGAAAGGT | 1.1 ± 0.2 |
| CTATGGCCGG | 0.969 ± 0.024 |
| TAAGTGACAG | 1.01 ± 0.063 |
| TGCAGGGACG | 1 ± 0.03 |
| TAATCGTTTG | 0.962 ± 0.01 |
| TTTTTTGTT | 0.977 ± 0.034 |
| ATGCATGGGC | 1.03 ± 0.022 |
| TTTTACAGTA | 1.07 ± 0.022 |
| ATGTGCGATT | 1 ± 0.037 |
| GAGCGGGGTG | 1 ± 0.021 |
| ACCAGTCTCG | 1.07 ± 0.08 |
| GCTGACGGTT | 0.997 ± 0.024 |
| GGGCTGTGTG | 1.02 ± 0.035 |
| CCGGGGTTAT | 1.119 ± 0.0047 |
| CCACGATTAA | 1.003 ± 0.008 |

| Sequence | switch fluorescence ratio |
| --- | --- |
| CACCAAGGTT | 1.15 ± 0.088 |
| AGGAAGAACG | 1.04 ± 0.02 |
| AATCAGGGTA | 1.01 ± 0.04 |
| CCTGTGGGGG | 0.993 ± 0.028 |
| CATGTTGGGT | 1.008 ± 0.007 |
| AGAATTTGTT | 1 ± 0.024 |
| GCATGCTGTC | 0.983 ± 0.019 |
| ATTTTATTAG | 1.01 ± 0.021 |
| TTGTGCTTTA | 1.006 ± 0.0062 |
| ATAATATTGT | 0.999 ± 0.0022 |
| ACCCAAAATT | 1.05 ± 0.033 |
| TGCTTGTTAC | 1.03 ± 0.018 |
| CAATTCGTAA | 1.11 ± 0.018 |
| AAGGGCGCTG | 1.01 ± 0.048 |
| TGTAGTAGGT | 1.004 ± 0.002 |
| TTCGATCTGA | 0.955 ± 0.012 |
| GGAGAGCATT | 1.039 ± 0.0091 |
| TAGTTGACCC | 1.01 ± 0.053 |
| CATGGGGGGT | 0.994 ± 0.014 |
| TGGGTGCGG | 0.984 ± 0.026 |
| GTTCTATCAG | 0.995 ± 0.09 |
| TCATTTTTTT | 0.997 ± 0.036 |
| GGGGTAGCTG | 0.962 ± 0.012 |

| Sequence | switch fluorescence ratio |
| --- | --- |
| GACTTTTATT | 0.989 ± 0.017 |
| TTGTGGTCGC | 0.97 ± 0.024 |
| TGGGCAGATA | 1.08 ± 0.1 |
| TTTTGATGG | 0.995 ± 0.036 |
| TCATGATAGT | 0.9825 ± 0.0081 |
| ATGGATAGCG | 0.968 ± 0.074 |
| TTAGACACAA | 1.01 ± 0.046 |
| CGAGCATTTT | 1.14 ± 0.017 |
| AGGGATTAA | 0.99 ± 0.054 |
| CGTTGTAGGA | 0.999 ± 0.016 |
| TATGGTGAGC | 1.01 ± 0.023 |
| GGGTATGGGT | 0.995 ± 0.043 |
| TTTAGGAGGT | 1.04 ± 0.049 |
| TCTTTGGGAT | 0.962 ± 0.033 |
| AATTTTTCAT | 0.977 ± 0.028 |
| ACGATTGTCT | 0.973 ± 0.037 |
| CGGCAGGCGG | 1.05 ± 0.044 |
| GTTCCGGTTT | 1.01 ± 0.034 |
| TCATTCCATT | 0.988 ± 0.031 |
| ATGGAAGTGG | 0.9908 ± 0.007 |
| TTACCATCCT | 1.19 ± 0.029 |
| GGGTTTGCAC | 1.03 ± 0.026 |
| TGAGAGGCGT | 1.022 ± 0.0098 |

| Sequence | switch fluorescence ratio |
| --- | --- |
| GCTATTGGTA | 1.01 ± 0.03 |
| CGCGTAGGGC | 1.04 ± 0.016 |
| GCTTTGGTGA | 0.991 ± 0.019 |
| GCGTTAAGGA | 0.9835 ± 0.0056 |
| GGCTAGGTGC | 1.24 ± 0.058 |
| GTGTAAAGAC | 1.03 ± 0.053 |
| TGGGGCTAGG | 0.993 ± 0.018 |
| GGGGGGTGTG | 0.986 ± 0.025 |
| GTTCCTATGA | 1.01 ± 0.043 |
| TTTCATAGC | 1.1 ± 0.065 |
| AGATAGATTG | 1 ± 0.04 |
| GAGGGCAGAC | 1.24 ± 0.075 |
| TTTGGGCCTC | 0.9842 ± 0.0021 |
| CCGTCTAATA | 1.42 ± 0.49 |
| TTGGCTTAGG | 1.05 ± 0.096 |
| CAACGTGTGG | 1.04 ± 0.072 |
| TGTGTTGTTT | 1 ± 0.044 |
| AAGTACAGGC | 1.27 ± 0.12 |
| TAGAGATTTT | 1 ± 0.046 |
| TTTCCCCTTT | 1.08 ± 0.15 |
| TTGAGAGTTG | 0.984 ± 0.046 |
| CTCGTTTAGA | 1.022 ± 0.0084 |
| CGGGGTGTCT | 1.02 ± 0.071 |

| Sequence | switch fluorescence ratio |
| --- | --- |
| CTATTGGGCT | 1.01 ± 0.012 |
| GCGTTCGGGA | 0.984 ± 0.021 |
| ATGGGTTTAG | 0.994 ± 0.016 |
| GCGCGTCGCA | 1.02 ± 0.025 |
| CCGTATAAGG | 1.023 ± 0.0038 |
| GCAAGTAGGG | 1.02 ± 0.019 |
| GGGAGAAGCG | 0.982 ± 0.014 |
| AATAGTGGCA | 1.02 ± 0.044 |
| GTCTCGGCAT | 1.2 ± 0.044 |
| GCGTTATCTT | 0.99586 ± 0.00081 |
| CATGCTTTCT | 0.9836 ± 0.0079 |
| CAGTACTCTT | 1.01 ± 0.03 |
| CGTACGGCGG | 1.015 ± 0.0038 |
| ATGCGCCGGT | 1.011 ± 0.0027 |
| ATATTTCAGG | 0.999 ± 0.027 |
| CGGGGAAAGT | 0.996 ± 0.015 |
| CCAGGTAACA | 1.03 ± 0.012 |
| AAGGTTACTC | 1.01 ± 0.029 |
| TAGGTCGGCC | 1.004 ± 0.0061 |
| GGTCAGGGTT | 0.954 ± 0.035 |
| GTTCAAGATA | 1 ± 0.036 |
| ACAGTTGTTA | 0.98717 ± 0.00059 |
| CTTGACATGT | 0.976 ± 0.016 |

| Sequence | switch fluorescence ratio |
| --- | --- |
| ACTCATGTT | 0.996 ± 0.012 |
| TGTTCTTTTT | 0.993 ± 0.038 |
| TTAATTTATG | 0.976 ± 0.035 |
| TAGGGGGTTC | 1.01 ± 0.027 |
| TTTGAGGATA | 1.07 ± 0.021 |
| GGTGTCTGCA | 0.9931 ± 0.0019 |
| TGTGTAGTTG | 0.9821 ± 0.0042 |
| TAACGGGGTT | 0.9826 ± 0.00097 |
| ATTGCAAATC | 1.027 ± 0.0094 |
| CCTATTCCGG | 1.05 ± 0.03 |
| ATTGCTGGCG | 0.939 ± 0.039 |
| CGGACTCAAA | 1.12 ± 0.025 |
| TATATCTATA | 1.02 ± 0.015 |
| TTTTGGAGTA | 1.02 ± 0.047 |
| ATTTAAATTA | 1.01 ± 0.017 |
| AAGGCGGGTG | 1.01 ± 0.015 |
| AAAAGAGAAG | 1 ± 0.011 |
| CTGGCTGGTT | 1.01 ± 0.013 |
| CACCGGGGTT | 1.01 ± 0.018 |
